Measured values as given in publication PMC6650080, “A novel Ca2+-binding protein that can rapidly transduce auxin responses during root growth” (PLoS Biology, 2019).

Legend:
His6-ICR1 = target: T1, His6-ICR1 (Arabidopsis, UniProt Q8LE98 1-344); test: co-IP; purified His6-CMI1 and His6-ICR1, 1 μg each, 300 μL reaction buffer (20 mM Tris-HCl pH 7.5, 5 mM CaCl2, 0.1 mg/mL BSA, 200 mM NaCl, 1% Triton X-100), RT; anti-CMI1 antibodies and Protein A beads; blot with anti-poly-His; settings: both partners purified
T1 construct: ICR1, Arabidopsis; also called His-ICR1; source: E. coli Rosetta (DE3), purified (Ni-NTA)
T1 sequence (looked up): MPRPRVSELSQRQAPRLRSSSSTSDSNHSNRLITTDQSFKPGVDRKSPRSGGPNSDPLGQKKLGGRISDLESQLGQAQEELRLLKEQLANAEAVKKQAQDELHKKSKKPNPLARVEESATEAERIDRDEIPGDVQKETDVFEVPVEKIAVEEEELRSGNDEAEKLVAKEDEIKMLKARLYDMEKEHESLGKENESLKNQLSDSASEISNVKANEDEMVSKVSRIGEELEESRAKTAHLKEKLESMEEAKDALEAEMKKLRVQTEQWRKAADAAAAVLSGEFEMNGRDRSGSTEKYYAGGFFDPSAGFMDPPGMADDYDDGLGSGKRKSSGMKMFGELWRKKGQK

GST-ICR1 = target: T2, GST-ICR1 (Arabidopsis, UniProt Q8LE98 1-344); test: pull-down; GST-ICR1 (1.2 μg) or GST (0.4 μg) on Glutathione sepharose, His6-CMI1 0.5 μg; 20 mM Tris-HCl pH 7.5, 5 mM CaCl2, 0.1 mg/mL BSA, 200 mM NaCl, 1% Triton X-100, RT; wash with 1 M NaCl; blot with anti-poly-His; settings: both partners purified
T2 construct: ICR1, Arabidopsis; also called glutathione S-transferase (GST)-ICR1; source: E. coli Rosetta (DE3), purified (Glutathione sepharose)
T2 sequence (looked up): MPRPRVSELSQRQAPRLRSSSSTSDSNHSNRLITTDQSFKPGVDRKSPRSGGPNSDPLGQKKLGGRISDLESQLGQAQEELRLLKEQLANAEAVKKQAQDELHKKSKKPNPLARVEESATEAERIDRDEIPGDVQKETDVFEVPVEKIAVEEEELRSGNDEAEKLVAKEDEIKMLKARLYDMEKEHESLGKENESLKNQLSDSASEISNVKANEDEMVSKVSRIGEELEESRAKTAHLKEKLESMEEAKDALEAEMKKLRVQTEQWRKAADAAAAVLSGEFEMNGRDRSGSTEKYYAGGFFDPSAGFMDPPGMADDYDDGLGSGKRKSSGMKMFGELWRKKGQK

binding result (His6-ICR1): binds
binding result (GST-ICR1): binds
B1: His6-CMI1 (natural protein, Arabidopsis, UniProt O81831 1-130, looked up)
chain: MASPKSPTRPTQQNPQPNFHDFLPTMAGNLGGEGLIGELCNGFELLMDREKGVITFESLRRNAAAVLGLGDLTDEDVRCMIKEGDFDCDGALNQMEFCVLMFRLSPDLMEASRCLVTEVIEEEFGFTRRH
notes: CMI1, Arabidopsis, At4g27280; also called His-CMI1; source: E. coli Rosetta (DE3), purified (Ni-NTA)
